Source: the NTF2 design screens of Basanta et al. (2020)

experiment: protease stability score; higher = more stable; yeast display proteolysis, trypsin and chymotrypsin;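 also: log10 excess protease needed over predicted unfolded state with 0 meaning unfolded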

| Sequence | protease stability score |
| --- | --- |
| DQDHLRELVHTFNRLLEQGNFDELANMFDKNARVDVGDKSYHGQEQVRTWFKHLRQRVDHFHVKHYKVRGDEATIHVIMDVNGQKRNVTVRLSFSNGRADHIQIDPDHKQELDK | 1.56 |
| DQDLHTRFKTWVENLHEGDEDNLKSLADPNAKIKVGNKEYHGMDEFKKDQKRRRDQMRIQIEIDSVTVQGNKATAEFEMTLDVNGKPVRMRFRVQFEVHNGTIQSWEAQVSPEQQEKLDR | 0.967 |
| DQDQMRKAEQAMRAEQKNNKEELDELFDPNVEVEVGDFNVEGREEMNKEVDDLKKQARFHWSLHHVEVRGNRMHFKLRFEIQVNGQPRKNTANVEIEAHNGKFTSKTNRIDPRFVKTLLG | 0.55 |
| DQDRLEEVRRRMTTGNPDDLRNLMDEDVTVQYGDKEVHGRDEAVDRLEKLLRQVDHLRIDSMDAHGDEFNVHLSAVVNGRQVNFVVSLRIHNGKIKHFMQQATDEDQQKRLEHAWD | 1.23 |
| DQEAAEILKRFVKAIKTGDPDEAKEQMDKDVKVRVGDKVIHGREEVAKEVEQTNRNLRLEVEINDYTVDGDKVTIRMRIVTNENGRPDVKTVKVTAHAHNGRLVHLEIQSDS | 0.778 |
| DQEAAQDMRQWINAWNQNNPRKLRKLVDENARINIGEWHLQGRERIHKFAEKLIHEMDVQFSIKSFHVQGNKIKANLRIVANINGRPHEVNANLVVIVHNGHIKEIKATLDEDQIRHLNS | 0.648 |
| DQEAHRVFNEFIKAITTGNPDRARQLADPNARFQVGDKRYHGMERYASTLKQQQNKMTQSLRVRDVDVKGDKIKVDAQSEMNHNGQPRRSQHNIDVNIQGDKIKRVRYTDDK | -0.454 |
| DQEDKDSLEQILHTGDWVDAAKSADPNAQAEVGDKTWTGREQVEKVMKRLRDDIDHQEVKSVEIDGDKMHVDLTAHINGERMRITIEVKYSNGHLVKVVVKATDKEVEKHLKKLLD | 1.54 |
| DQEDLKHLANVLRTGDWDRLRDLFDENARVKIGDKEVHGKEDAKKLAEQLKRSIDHMKISTWSITNGVLEMHFRVNVNGKTYEVQMELHAHNGRIKSMELHYRNREVKHVIKEMLD | 1.08 |
| DQEDLRRIAEQVNRAFEKNDHDLMRRLADKDVKFHVGEKELTGRDNLARFLQEFRRRADHITVKSFDASNGRVNADIEIDVNGQKIKLHMQAEVHNGHIKHVRFHYTDEQQLRDFLS | 1.24 |
| DQEDQQRLAEQFMRALDEGDSDTIAKLLDPNARVIVGDKTVHGHRHARRVIHEFRNRVDRVDVRTVEVDNGHVRIEAVLNFNGQRTRFVYHLKIDNGRFKEMQLRSK | 0.892 |
| DQEEAEKVMKQWMEAVQKGDEDTVRKLYDPNVEWINADTKEQDVEQFRKAIKKAKDKGVEFQVRKAKVEGDRVQMHYDVRIGNETVTFTVEMDVQGGKVEWLRVKVDEKARKALTKG | 1.22 |
| DQEEAERVVKRAIKALENGNSKELKDLGKEGVEYEFGDKKIHGPDALVKQFRTLQKKGVEMEFKEHHVEGDEAHTKVRYRNGDKENEATITATVKGGRIDRVQVNVPETIRKIVKHG | -0.076 |
| DQEEAKEVAEKVMKAVENGDEKKLKDLIDEGVKYEVGDTQQHGPEVAVKVVQYLQKKGVRLEFKEVQHHGNQVHTKIEYQNGDETDTVEATAEVKGGKIDQVQIHASETVVKWIKHG | 0.088 |
| DQEEAKKIVDKMLKAVENGNEEDLVKMGADGVEYRAGDKKAHGPEAIQEVVQYLKRKGVEVEVKEVQVKGDKAQTHVDYKVGNETMTATANATLKGGKIDRVEIDFDETLKKVIKDG | 0.154 |
| DQEEAKKVAEQAIKYVENGNLTELMDMLKDGGEYQVADDKKHGKEVLYKLVKILQRLGVEVEFKRTEIEGNTVTTDVDYRLGDEEATAQAHAEVQGGRIDRVQIDADEHLKKWIKHG | 0.606 |
| DQEENQKIAERIVKIIQTGDNEKAMKQVDKNVRIRVGEKEYHGRESAREHIREQKEQFDHATVDDMKVQGNKIVLKMRLDVNGVDMDVVIKVTVKNGTIKELHVEYRDREDQQKIES | 1.09 |
| DQEEVEQAKKFVEAQKSGDPDQLNDLADPNVELEIGDQELHGREDLHDWANHQNKHMRMEVRDVKAQDKPNHVEVHIRFVINVNGKPRDTTVEVDFSAENGHIKKIKFQIDHHELRKLEK | -0.154 |
| DQEEVRRVVEKVAKAVQNGDATRLRDMGKDGVKYRRVEEETHGPEAVEKVLKYLRKQGVKLQVKHVEVEGNTAQTEVDYRRGDETLTVHAKAKVQGGRIDEVQVDLDEKAKKYVDHG | 0.138 |
| DQEHVKRRADTAMKAIQNGDPDEAVKQMDPDAKMRVGDHEITGREDVRRYVETLHRRVDHNHILSLTHHGETVVFNAVVKVNGRNVTVNWVLKFHNGRLKQVDINPDEEKRFQS | 0.079 |
| DQEHYEKIAKHMSDVLRTGNPDDMLRMIDPNARLEVGDKRWNGRHKIKKFLETFVKSADHVKVRHVEVSGNDITLDVVAHVNGRSVKFNVHANVHNGRIKEVKFDPRAWRDLQT | 0.505 |
| DQEKFERMAHKANRALEQNDEETFDELADENARMIYGDKRYTGRERVREAVQEIDKRVDHVQVDRVNVHGERAQINAVFHFNGKTQRDNVNMRFSNGKLQEMRFDPDVIRNLEE | -0.131 |
| DQEKKATRFARKLIHDIRTNDEEHLVDLADPNVKVQYGDKSYHGREQFKKWWKDLMDQADHVDVKVRDLKVDGNKFVLVYSYVMNHNGQKREVEMNVSAKDKNGRINIQSIQMG | 0.301 |
| DQEKLETLARQVFDAFREGDEETFRRLADPNVTAVYGDQKYRGRERVAKWLKDLANQIDHLQLNDVTIQGEKMHFDATVRINGKNRKLVMIVEAENGTLKRVVLSHG | 0.166 |
| DQEKLQSYVKQYETNDESKLKKNMDENARVDIGDRRITGMEKAADILRHFMEQADHVKLDRMEVQGNHATVDVTAVVNGQKLDYKFVIHVHNGKVKRVEWRVTSEENQKTYDKIVG | 0.537 |

| Sequence | protease stability score |
| --- | --- |
| DQEKNNHDAKKWVKNLRTGNEDELQRLFDEDARFNYGDKTVTGREQLQEWAHRMQRRIDSVDVRSVSQHGDKMNIDVVVRVDGRDRRFIFRAEIHNGRIKNAWMEDT | 0.497 |
| DQELRDQVERLLHLEKHGDNDEVLRQFDPNAKAQVGDTRYHGMTTAVRDMVRQQNEARFSFEIHHVSVSGDRVVIDAVYVKDHNGKPSTRRVHIQMHFRNGKVQERRQNDDG | 0.782 |
| DQENLDVLRRLWEALESGNPDKYSQLIDPNAEVVVGDKTYEGKENLKQEIRTERDEMRKEIDWKSMSVHNGQANAEAKIRSNHNGDPREMVVTARARFHNGKLQNYEQHVDK | -0.325 |
| DQENLELMNRLLEAISSNDESKFRRLVDPNVRVVIGDEQYHGRETLQKLLRDHNEHSRNDEHIHRVELHNGRVNMDVTREVDHNGRPQTDKFEIVATANNGKAVRMRFERTS | -0.164 |
| DQEQAEETQKKWQEVVEKGDEKKAKKIYDPNGQWQDADETHQGYEIVIKMMRRAQKKGIEFQVRRAEVEGDRLQVDYDMRLGDKTVTFTVQMEVQGGHVKVVRVEVTEEAKKLLKEG | 1.11 |
| DQEREMQEWYEKLVRNYENNDRDRLNELLDPNAQFNVGDQTFHGRENAKKWLKTMVDKVDSVEFDLRRLHVHGNKVVFHANVRYRVNGTDTTVDVVIVARVDNGRLRVEKVEYG | 1.28 |
| DQERNEQAKKLLDIINTGDEHKVKDMFDPNASIKVGDHTLHGREEIAKHYRREKDESRYQVDRVDFKAHGEKVRVSVKYTFRHNGKPLTATVEYNFRMHNGRIKDLSVRFDEQRQRDRDS | 0.117 |
| DQEVAETMMERWQKAVQKGDPKEVQEVYDPNVTWKDVDEEHQGKEQVVKQMRKVQKQGIEFQIRRAEVEGDRAQAVYDVKLGNLTVTFTVEMTVRGGRVQEVRVEMDEEAKKLVKKG | 0.136 |
| DQEVREYIKRVYSTGDPDELNKLIDKDVRMRVGDKEVEGRETVQTIMRDWMTRVDDIKVHSYDVRGNKANYDAQYVFDGRSARFVIHIEFHNGRVKHVVVEATNEEVKQLLRDMLS | 1.33 |
| DQHAKRLFDEVVSAIKDGDPHQVKKQLDKNVRARVGDKTISGRETFAQQRKTERDEIEWDVEDYKADVNGDHIKVDMKVKSEHNGRPTSDKIDVDVQWHNGHVVRMEFKETR | -0.392 |
| DQHDAERMNRVFEQNNEEELHQLMDPNVEVTVGNKRVKGRERAKKLFKRLVTNIDHVSYRSVNDDGDKLELKFVAVINGQTYHLKIEVTLHNGKVKSIHLDARDEKLKHLLDEWLH | 1.39 |
| DQHEQQKLAENVQKVLRKGDESRFQRLVDPNAKMTYGDKSLTGHERFRKWMQEFRHHADHVEFKEVSIHNGKLNMHAVIDVNGHKQTFVMHFQFHNGTVQHVEQTQT | 0.289 |
| DQHLEDVARQMQEVEKHNDPEEVSKQFDPNAHARYGDKEVHGHHQFKEQAKRRQTKAQFKVDKYSVSVDNGRVSMSRQYVNDHNGKPRTQTDTAHMEVHDGRITDVKYQSTS | -0.139 |
| DQHVEDVARKFINAMQTGDPDRLKELFDPNARQQVGDTVVTGREHAAKKWKEWVDEMEVHVQLRSIDVRGDKATLRFKLEVRVNGKPSQQDVTMVIHMHNGRAVDVKLSIDERDKKEIDS | 1.42 |
| DQKDAKRATEILKNLQEGDWSEVVRQADPNAEIKVGDKVYNGMEHYAEHMHRKVEHSRIRIEVETVKDHNGVIHIKFHIEYKVNGHPRSNTQNINFYLNNGKVRSIDVQVPEEDLEKEHK | 0.252 |
| DQKKLKEQIKELWDALRTGDPQRAADLADPNARIQVGDKEITGREKFREHVKENKERIDRFTINDFKVQGDKARVDFHYEVNGQHRRVDATIVMRNGHIVSAQFDSQ | 0.717 |
| DQKKQQEVLEQWSKNDPRDLRKQADKDVRVQIGDTTYHGREDAQDALYTLAKRVDHFKYQHIETEGDHIRVDLVVNVNGREYQLTFEAQFHNGRLKTLEMQVRDEDQHKRLQEQLD | -0.22 |
| DQKVNEFFKHVVKVEENGDTDKYRDNFDKDARAVYGDKRVTGNDELADTMRRTRHDMKYDVRSMDVQVRNGRVTVDVKVDVRVDGKPHSLKETIEMEVDNGKVKEVRVDFDPDQRRKVER | -0.188 |
| DQNDRAEEFFKHWQRILTKNDPDEARKQMDKDVNVVYGDKRYHGREEVVKYLRDNMDRVDSIRVKLDDFKVDNGKATFHARFRQTHNGKDEQHNVVIVAQFKNGKLRAQSYHES | 1.01 |
| DQQDVDRFTEFLEAVERGDEDRLRELMDKDAKQKVGDKTIEGSEKQVNELNDRARRMRIVLEVHDVKVHNGRLEARADLLVNVNGQPVRDDVVVRVQVHNGKITHVEMHFPEEFKRQMRR | 0.858 |
| DQQHTASKVLSDMVKAIQDGDEDHISEQADENVKIRIGDKEYHGKENARRMLKEIQHQVDHISVEVKSVSSHNGRVNVRAEVQMRFNGRSTSYDVTAIFRYNNGQLRLYSVSAR | 0.242 |
| DQQKEAEKFARDMRRALDTGDERDVANLFPPDAKLRYGDKSFHGMDDIFKWVVTVLRQADHIHFQVRSVRDQGDKADIEFELRYDVNGQDRSRIFHAEVRHNGDNVQVEMNVEK | 0.326 |
| DQQTDAKEHAETVNKVLTHNDPNKLRELFDEDARMRVGDKEYRGQEQVDHVLKEIADRVDHVDVKLESVSLENGSVKVVIRAVFDDNGRKNDVHIDLVAVIDNGDLYIKEIRFE | 0.301 |
| DQRDLEHVNHVLQTGDPDQFRDLVDPNARIRVGDKTIHGRENVLTKYRRLMEQADHLQIDSIRNHGEFVVFDFRMTVNGRQVDAEVNIHVKDGQIKEIEIRFRSEEQEDRWRKQAD | 1.42 |
| DQRDQRKANEIIKTNDESKLAKQADKDARLVVGNKEYHGKEQVQHFADQLEKMFDHLEITHYDSHGENFNVVAVMDVNGQRVQYYWRFRVHNGQFKYIEFRARDEETQKTIHRLLG | 0.606 |
